± gives the standard error. Fewer inactive variants are shown than the library holds.
B1: glmS ribozyme (parent)
chain: AUAAAAGCGCCAGAACUACAGAAAUGUAGUUGACGAGGAGGAGGUUUAUCGAAUUUUCGGCGGAUGCCUCCAAA

Assays:
Details in all cases: with glucosamine-6-phosphate
glucosamine-6-phosphate [1] = variants of: B1; experiment: self-cleavage kobs at 160 uM GlcN6P; higher = faster cleavage; RNA array
Procedure, shortened: (§1)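 Sequenced MiSeq chips were the platform: E. coli RNA polymerase transcribed barcoded ribozyme variants on them in situ, and a hybridised Cy3 probe tracked these at 37 °C. After glucosamine-6-phosphate (40 μM to 10 mM) in HEPES/KCl/Mg(OAc)2 buffer was flowed in, tiles were imaged over ~14 h. Signals normalised to baseline and to non-cleaving reference variants were reduced to per-tile medians and fit to one- or two-exponential decays to obtain kobs. kcat and KM were derived through weighted Michaelis–Menten fits across concentrations.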

glucosamine-6-phosphate [2] = variants of: B1; experiment: self-cleavage kobs at 640 uM GlcN6P; higher = faster cleavage; RNA array
Procedure, shortened: as §1

glucosamine-6-phosphate [3] = variants of: B1; experiment: self-cleavage kobs at 2500 uM GlcN6P; higher = faster cleavage; RNA array
Procedure, shortened: as §1

glucosamine-6-phosphate [4] = variants of: B1; experiment: self-cleavage kobs at 10000 uM GlcN6P; higher = faster cleavage; RNA array
Procedure, shortened: as §1

Variant	self-cleavage kobs at 160 uM GlcN6P (glucosamine-6-phosphate [1]) [s⁻¹]	self-cleavage kobs at 640 uM GlcN6P (glucosamine-6-phosphate [2]) [s⁻¹]	self-cleavage kobs at 2500 uM GlcN6P (glucosamine-6-phosphate [3]) [s⁻¹]	self-cleavage kobs at 10000 uM GlcN6P (glucosamine-6-phosphate [4]) [s⁻¹]
G9U C10U U54G	< 1e-05			
C10U A33C G59A G66U	< 1e-05	< 1e-05		
U30G U57C G62C	< 1e-05	< 1e-05		
G7C A12G A33U G51U	< 1e-05			
A6U G41U C68A	< 1e-05		< 1e-05	
G44U U45G U69A	< 1e-05			
G9A A14U A36C U46G	< 1e-05		< 1e-05	
C34G G40U G41A C58U	< 1e-05	< 1e-05		
C8A G38U	< 1e-05		< 1e-05	
U30A U31C G60A C71A	< 1e-05			
C10U G40C G44U	< 1e-05		< 1e-05	< 1e-05
C34U C50G C68A	9.29e-05 ± 2.9e-05		9.73e-05 ± 2.8e-05	
G9U C10G C11U C70U	< 1e-05		< 1e-05	
C11U A12C G43C	< 1e-05		< 1e-05	
G35C U69G	< 1e-05		< 1e-05	
G29C G41U G63C C68A	< 1e-05	< 1e-05	< 1e-05	
G13U A14U U57C	< 1e-05		< 1e-05	
G35A U55C C70A	< 1e-05	< 1e-05		
A14C G38C	< 1e-05	< 1e-05	< 1e-05	< 1e-05
A12G U46G G59U	< 1e-05	< 1e-05	< 1e-05	
C58A G59C	< 1e-05	< 1e-05		< 1e-05
G35A A48G G51C A64C	< 1e-05			
G29U G60U	< 1e-05	< 1e-05	< 1e-05	< 1e-05
C34G A36C G38U A64C	< 1e-05			
G29A A53U C67A	7.84e-05 ± 1.8e-05	0.00017 ± 4e-05	0.000241 ± 7.1e-05	
G37C G41A C50G G60A C67G C68A	9.12e-05 ± 1.6e-05	8.46e-05 ± 1.9e-05	9.58e-05 ± 1.3e-05	

Variant	self-cleavage kobs at 160 uM GlcN6P (glucosamine-6-phosphate [1]) [s⁻¹]	self-cleavage kobs at 640 uM GlcN6P (glucosamine-6-phosphate [2]) [s⁻¹]	self-cleavage kobs at 2500 uM GlcN6P (glucosamine-6-phosphate [3]) [s⁻¹]	self-cleavage kobs at 10000 uM GlcN6P (glucosamine-6-phosphate [4]) [s⁻¹]
C50U U56C C67U	< 1e-05			
C34A A64C C68U	< 1e-05	< 1e-05	< 1e-05	
U30C U46G U54A	< 1e-05			
C16U A64G U65A C70U	8.56e-05 ± 2.7e-05	0.00104 ± 0.00025	0.000964 ± 0.00024	
A15G C16G U55A	0.000205 ± 6e-05	0.000405 ± 0.00011	0.00143 ± 0.0004	
A39U U54C G62C	< 1e-05	< 1e-05	< 1e-05	
U30C G59U	< 1e-05	< 1e-05	< 1e-05	< 1e-05
A6C C11U C16U U30G A39U G41U U54G U69G	< 1e-05			
G44A G51U	< 1e-05			< 1e-05
A6C C8U C34A	< 1e-05	< 1e-05	< 1e-05	
A15G C34U G63A	< 1e-05		< 1e-05	
A15C U30A C67A	0.000277 ± 6.8e-05	0.000357 ± 8.3e-05	0.0013 ± 0.0005	
A14C U54C U57A G60A C70U	< 1e-05	< 1e-05	< 1e-05	
G13A U45C C50U C71G	< 1e-05	< 1e-05	< 1e-05	
C16U U31C C68U	6.38e-05 ± 2.3e-05	0.000149 ± 3.2e-05	0.00018 ± 4e-05	
G43C C61U	< 1e-05	< 1e-05	< 1e-05	< 1e-05
G9U C67A	< 1e-05	< 1e-05	< 1e-05	< 1e-05
C8U G66U	< 1e-05	< 1e-05		< 1e-05
U49C A53C	< 1e-05	< 1e-05	< 1e-05	
A33C U56C	< 1e-05	< 1e-05	< 1e-05	< 1e-05
G35A U49A C67G C68G	0.000246 ± 7.8e-05	9.7e-05 ± 2.3e-05	0.000118 ± 3.7e-05	
G38C A42C	< 1e-05	< 1e-05	< 1e-05	< 1e-05
G35C A42U G43A A52U	< 1e-05	< 1e-05	< 1e-05	
C10A G35A A39G	< 1e-05		< 1e-05	
C11A G13A A39G	< 1e-05	< 1e-05		
U45A A53G C71U	0.00381 ± 0.0013	0.00623 ± 0.0015	0.00735 ± 0.0025	

Variant	self-cleavage kobs at 160 uM GlcN6P (glucosamine-6-phosphate [1]) [s⁻¹]	self-cleavage kobs at 640 uM GlcN6P (glucosamine-6-phosphate [2]) [s⁻¹]	self-cleavage kobs at 2500 uM GlcN6P (glucosamine-6-phosphate [3]) [s⁻¹]	self-cleavage kobs at 10000 uM GlcN6P (glucosamine-6-phosphate [4]) [s⁻¹]
A48G U49C G60A	< 1e-05	< 1e-05	< 1e-05	
C8G C58A C67A	< 1e-05	< 1e-05	< 1e-05	
C11U G32U A42U	< 1e-05		< 1e-05	
G40C A53U C70U	9.81e-05 ± 3.6e-05	9.65e-05 ± 2.1e-05	0.000268 ± 5.4e-05	
G35U C67A	< 1e-05	< 1e-05	< 1e-05	
A36G A48G	< 1e-05	< 1e-05	< 1e-05	< 1e-05
G37A G38A	< 1e-05	< 1e-05	< 1e-05	< 1e-05
C10G C11U C16A A33U C34U C50G C70U	4.84e-05 ± 2.3e-05	4.89e-05 ± 1.6e-05	6.14e-05 ± 2.5e-05	
A6G G7U A14G A33C	< 1e-05			
C50U U56C C68U C70U	< 1e-05			
A42C C61U	< 1e-05	< 1e-05	< 1e-05	
G60A C61U G63A	< 1e-05		< 1e-05	
A36C A39G C68U	< 1e-05	< 1e-05		
G35C U46C C50A	< 1e-05			< 1e-05
U57G G63C	< 1e-05	< 1e-05	< 1e-05	
U30G G32A G35A C67U	< 1e-05	< 1e-05		
C8A U31C A48U G51A G59C	< 1e-05	< 1e-05	< 1e-05	
C10G C19A A48C	< 1e-05	< 1e-05		
A14C G32C G35U U57A	< 1e-05	< 1e-05		
G32A A42G G43C G51U G66C	< 1e-05	< 1e-05		
A6C G35C U46A C61A	< 1e-05	< 1e-05	< 1e-05	
G43A U56A U57A C61U	< 1e-05			
A33G A42U G59U	< 1e-05			
A39G C50G	0.000247 ± 0.00011			
G29A G41U A53C C58A	< 1e-05	< 1e-05	< 1e-05	
A15U G60U C61U	< 1e-05			

Variant	self-cleavage kobs at 160 uM GlcN6P (glucosamine-6-phosphate [1]) [s⁻¹]	self-cleavage kobs at 640 uM GlcN6P (glucosamine-6-phosphate [2]) [s⁻¹]	self-cleavage kobs at 2500 uM GlcN6P (glucosamine-6-phosphate [3]) [s⁻¹]	self-cleavage kobs at 10000 uM GlcN6P (glucosamine-6-phosphate [4]) [s⁻¹]
G40C C50U U57A C58G U65A	< 1e-05		< 1e-05	
U30G C34A	< 1e-05	< 1e-05	< 1e-05	
C34G U56C	< 1e-05			
C11U C61A G63C	< 1e-05	< 1e-05		
A14C C16A U31C G35C U55G	< 1e-05		< 1e-05	< 1e-05
G35U A42C	< 1e-05	< 1e-05	< 1e-05	
A15U A42U G51A C67U	< 1e-05	< 1e-05		< 1e-05
G9U G41C U47G	< 1e-05	< 1e-05	< 1e-05	
A33U G35U A42U G44U	< 1e-05	< 1e-05	< 1e-05	
A12G G51A	< 1e-05	< 1e-05		< 1e-05
A15C A39U A42C C67G	< 1e-05	< 1e-05	< 1e-05	
C11A U46G	< 1e-05	< 1e-05		4.72e-05 ± 2.1e-05
A14U U47C U49A	< 1e-05			
C50U C70G	0.000293 ± 0.00013	8.51e-05 ± 1.6e-05	6.07e-05 ± 1.3e-05	
C10A C16U G41A A42C	< 1e-05	< 1e-05	< 1e-05	< 1e-05
G13C C34A G35U	< 1e-05	< 1e-05	< 1e-05	
G44A U49A	< 1e-05	< 1e-05	< 1e-05	< 1e-05
C11A A15G U69G	0.000139 ± 6.4e-05	0.000293 ± 0.0001	0.000159 ± 4.9e-05	
G38U A42G	< 1e-05	< 1e-05		
A14U C50U G51U	< 1e-05	< 1e-05	< 1e-05	< 1e-05
U30G G41C G60A	< 1e-05		< 1e-05	
G41C A52C G60A G63A G66A C68U	< 1e-05	< 1e-05		
G13A C58A	5.76e-05 ± 2.1e-05	0.000121 ± 2.5e-05	0.000307 ± 7.3e-05	
